Measurements taken from patent US20090035321A1, “Intercellular adhesion molecules and their binding ligands” (Boehringer Ingelheim Pharmaceuticals, Inc., published 2009).

Assays:
Experiment in all cases: 35S-HRV14 on COS cells
[1] = target: ICAM-1 Q27/L (human, UniProt P05362)
Protocol: (§1) COS cells were seeded into 10 cm tissue culture plates such that they would be 50% confluent by 16-24 hrs. COS cells were then washed once with TBS and incubated for 4 hrs with 4 ml RPMI containing 10% Nu sera (Collaborative) 5 pg/ml chloroquine, 3 μg of mutant plasmid and 200 μg/ml DEAE-dextran sulfate. Cells were then washed with 10% DMSO/PBS followed by PBS and cultured 16 hrs in culture media. Culture media was replaced with fresh media and at 48 hrs post transfection (OS cells were suspended by trypsin/EDTA (Gibco) treatment and divided into 2, 10 cm plates as well as 24 well tissue culture plates for HRV binding. At 72 hrs cells were harvested from 10 cm plates with 5 mM EDTA/HBSS and processed for adhesion to LFA-1 coated plastic and immunofluorescence.
(§2) Binding occurred in 1 hr at 35° C. in a 5% CO₂ atmosphere with horizontal rotation (100 rpm). Unbound [³⁵S] HRV14 was aspirated, COS cells were gently washed with 150 ml of HRV buffer and then solubilized with 1% SDS in PBS for scintillation counting.
(§3) In Table 25, the notation for the mutations uses the one-letter code for the wild-type sequence followed by a slash and the one-letter code for the corresponding mutant sequence. The position of the first amino acid within the sequence is indicated. Wild type residues precede the slash followed by the residues they were substituted for in the mutant. COS cells expressing ICAM-1 mutants were tested for adherence to LFA-1 coated plastic and for binding 35S met-labeled HRV14. […] Binding is presented as mean and standard error (SE) for multiple experiments (n). […] The specific linear fluorescence intensity (SLFI) of CL203 for each mutant is normalized to that of wild type CL203 SLFI (% WT) as discussed above. The SLFI of RR1/1, R6.5 and LB-2 SLFI is normalized to the CL203 SLFI of the mutant (% CL203) as described above.

[2] = target: ICAM-1 S74/A (human, UniProt P05362)
Protocol: as §1, §2, §3

[3] = target: ICAM-1 Q73/T (human, UniProt P05362)
Protocol: as §1, §2, §3

[4] = target: ICAM-1 S24/A (human, UniProt P05362)
Protocol: as §1, §2, §3

[5] = target: ICAM-1 K39KE/ERQ (human, UniProt P05362)
Protocol: as §1, §2, §3

[6] = target: ICAM-1 R13/E (human, UniProt P05362)
Protocol: as §1, §2, §3

[7] = target: ICAM-1 Y52/FA (human, UniProt P05362)
Protocol: as §1, §2, §3

[8] = target: ICAM-1 D71/N (human, UniProt P05362)
Protocol: as §1, §2, §3

[9] = target: ICAM-1 R166PQ/EPA (human, UniProt P05362)
Protocol: as §1, §2, §3

[10] = target: ICAM-1 Y66/T (human, UniProt P05362)
Protocol: as §1, §2, §3

[11] = target: ICAM-1 K40/A (human, UniProt P05362)
Protocol: as §1, §2, §3

[12] = target: ICAM-1 D60/N (human, UniProt P05362)
Protocol: as §1, §2, §3

[13] = target: ICAM-1 M64/I (human, UniProt P05362)
Protocol: as §1, §2, §3

[14] = target: ICAM-1 S177/G (human, UniProt P05362)
Protocol: as §1, §2, §3

[15] = target: ICAM-1 T75/A (human, UniProt P05362)
Protocol: as §1, §2, §3

[16] = target: ICAM-1 D60/K (human, UniProt P05362)
Protocol: as §1, §2, §3

[17] = target: ICAM-1 T20CS/ACT (human, UniProt P05362)
Protocol: as §1, §2, §3

[18] = target: ICAM-1 E59/Q (human, UniProt P05362)
Protocol: as §1, §2, §3

[19] = target: ICAM-1 N118/Q (human, UniProt P05362)
Protocol: as §1, §2, §3

[20] = target: ICAM-1 V4/G (human, UniProt P05362)
Protocol: as §1, §2, §3

[21] = target: ICAM-1 E90/K (human, UniProt P05362)
Protocol: as §1, §2, §3

[22] = target: ICAM-1 A189T/SI (human, UniProt P05362)
Protocol: as §1, §2, §3

[23] = target: ICAM-1 N156/E (human, UniProt P05362)
Protocol: as §1, §2, §3

[24] = target: ICAM-1 R125/E (human, UniProt P05362)
Protocol: as §1, §2, §3

[25] = target: ICAM-1 G46NN/ASI (human, UniProt P05362)
Protocol: as §1, §2, §3

[26] = target: ICAM-1 N48/H (human, UniProt P05362)
Protocol: as §1, §2, §3

[27] = target: ICAM-1 E34/A (human, UniProt P05362)
Protocol: as §1, §2, §3

[28] = target: ICAM-1 K128/R (human, UniProt P05362)
Protocol: as §1, §2, §3

[29] = target: ICAM-1 R13/K (human, UniProt P05362)
Protocol: as §1, §2, §3

B1: human rhinovirus 14 (HRV14) (other)
chain: GAQVSTQKSGSHENQNILTNGSNQTFTVINYYKDAASTSSAGQSLSMDPSKFTEPVKDLMLKGAPALNSPNVEACGYSDRVQQITLGNSTITTQEAANAVVCYAEWPEYLPDVDASDVNKTSKPDTSVCRFYTLDSKTWTTGSKGWCWKLPDALKDMGVFGQNMFFHSLGRSGYTVHVQCNATKFHSGCLLVVVIPEHQLASHEGGNVSVKYTFTHPGERGIDLSSANEVGGPVKDVIYNMNGTLLGNLLIFPHQFINLRTNNTATIVIPYINSVPIDSMTRHNNVSLMVIPIAPLTVPTGATPSLPITVTIAPMCTEFSGIRSKSIVPQGLPTTTLPGSGQFLTTDDRQSPSALPNYEPTPRIHIPGKVHNLLEIIQVDTLIPMNNTHTKDEVNSYLIPLNANRQNEQVFGTNLFIGDGVFKTTLLGEIVQYYTHWSGSLRFSLMYTGPALSSAKLILAYTPPGARGPQDRREAMLGTHVVWDIGLQSTIVMTIPWTSGVQFRYTDPDTYTSAGFLSCWYQTSLILPPETTGQVYLLSFISACPDFKLRLMKDTQTISQTVALTEGLGDELEEVIVEKTKQTVASISSGPKHTQKVPILTANETGATMPVLPSDSIETRTTYMHFNGSETDVECFLGRAACVHVTEIQNKDATGIDNHREAKLFNDWKINLSSLVQLRKKLELFTYVRFDSEYTILATASQPDSANYSSNLVVQAMYVPPGAPNPKEWDDYTWQSASNPSVFFKVGDTSRFSVPYVGLASAYNCFYDGYSHDDAETQYGITVLNHMGSMAFRIVNEHDEHKTLVKIRVYHRAKHVEAWIPRAPRALPYTSIGRTNYPKNTEPVIKKRKGDIKSY
modifications: [35S]-Met labeled
[1]
  HRV Binding %: 57 % of wild type
[2]
  HRV Binding %: 156 % of wild type
[3]
  HRV Binding %: 133 % of wild type
[4]
  HRV Binding %: 99 % of wild type
[5]
  HRV Binding %: 61 % of wild type
[6]
  HRV Binding %: 10 % of wild type
[7]
  HRV Binding %: 125 % of wild type
[8]
  HRV Binding %: 62 % of wild type
[9]
  HRV Binding %: 25 % of wild type
[10]
  HRV Binding %: 204 % of wild type
[11]
  HRV Binding %: 89 % of wild type
[12]
  HRV Binding %: 89 % of wild type
[13]
  HRV Binding %: 107 % of wild type
[14]
  HRV Binding %: 66 % of wild type
[15]
  HRV Binding %: 119 % of wild type
[16]
  HRV Binding %: 4 % of wild type
[17]
  HRV Binding %: 130 % of wild type
[18]
  HRV Binding %: 92 % of wild type
[19]
  HRV Binding %: 110 % of wild type
[20]
  HRV Binding %: 30 % of wild type
[21]
  HRV Binding %: 50 % of wild type
[22]
  HRV Binding %: 168 % of wild type
[23]
  HRV Binding %: 107 % of wild type
[24]
  HRV Binding %: 157 % of wild type
[25]
  HRV Binding %: 9 % of wild type
[26]
  HRV Binding %: 81 % of wild type
[27]
  HRV Binding %: 66 % of wild type
[28]
  HRV Binding %: 137 % of wild type
[29]
  HRV Binding %: 123 % of wild type
